Data as given in patent US20260008817A1, “CYCLIC PEPTIDE OR SALT THEREOF, AND USES THEREOF” (FUJIFILM Corporation, priority 2023, published 2026).
Positions of bridges follow the written chain, without caps; N, C: chain ends. Non-standard residues stand in square brackets, D forms with d. No end group written: not given here. COCH2 = acetyl group that carries the bridge; NMeL = CN[C@@H](CC(C)C)C(=O)O; hLeu = CC(C)CC[C@H](N)C(=O)O; hCys = N[C@@H](CCS)C(=O)O; Orn = NCCC[C@H](N)C(=O)O

Assays:
[1] = Reductive stability of cyclic peptide (DTT treatment, LC); format: physicochemical; details: residual rate after DTT treatment, room temperature, 1 hour
Description: The molecular stability of the cyclic peptide was evaluated by analyzing an aqueous solution of the cyclic peptide treated with a reducing agent by liquid chromatography (LC).
The reducing agent treatment was performed under the following conditions based on the concentration of glutathione contained in the cells. 25 μL of a 0.2 mg/mL cyclic peptide aqueous solution was prepared, 58.8 μL of a 12.6 mmol/L DTT aqueous solution was added to the aqueous solution, and the mixture was incubated at room temperature for 1 hour to obtain an aqueous solution of the cyclic peptide treated with a reducing agent. The DTT aqueous solution was used by diluting a 1 mol/L (+−)-dithiothreitol (DTT) solution (FUJIFILM Wako Pure Chemical Corporation, 044-33871) with water. The total area of all the peaks in LC/MS of the cyclic peptide before the reducing agent treatment was set to 100%, and the proportion of the total area of all the peaks in LC/MS of the aqueous solution of the cyclic peptide treated with the reducing agent was determined to calculate the residual rate of the cyclic peptide, and the molecular stability was evaluated according to the following evaluation criteria. The evaluation result preferably satisfies the evaluation criteria A, B, or C.
• A: The residual rate of cyclic peptide is 90% or more. • B: The residual rate of the cyclic peptide is 70% or more and less than 90% • C: The residual rate of the cyclic peptide is 50% or more and less than 70% • D: The residual rate of the cyclic peptide is less than 50%
The LC used for the evaluation of molecular stability was set to the following conditions. • LC device: Prominence series (pump, column oven, autosampler, detector) (manufactured by Shimadzu Corporation) • Detector: photodiode array detector (SPD-M20A), measurement wavelength of 280 nm • Column: TSKgel ODS-100V, inner diameter of 4.6 mm×length of 150 mm, particle diameter of 5 μm (manufactured by Tosoh Corporation) • Eluent A: solution containing 0.1% trifluoroacetic acid as solute, and solvent is 100% water • Eluent B: solution containing 0.1% trifluoroacetic acid as solute, and solvent is 100% acetonitrile • Flow rate: 1.0 mL/min • Injection amount: 25 μL • Gradient: 20% to 50%: Eluent B (0 to 15 minutes), 100%: Eluent B (15 minutes) • Column temperature: 40° C.

[2] = target: T1, Recombinant Human FGFR1 alpha (IIIc) Fc Chimera Protein (Homo sapiens, UniProt P11362); experiment: SPR binding affinity of chemically synthesized cyclic peptide to immobilized FGFR; details: SPR binding amount at 10 nmol/L cyclic peptide, 25° C.; chemically synthesized product
T1 construct: purchased R&D systems 658-FR-050
Description: The binding affinity of the cyclic peptide to FGFR was evaluated using a surface plasmon resonance (SPR) method.
The binding affinity of the chemically synthesized cyclic peptide to FGFR was evaluated by the following procedure.
A CM5 sensor chip (Cytiva, 29149603) was set in Biacore-T200 (manufactured by Cytiva) which is a surface plasmon resonance device, and an HBS-EP buffer (Cytiva, BR100826) was added as a running buffer at a flow rate of 10 μL/min to equilibrate the flow channel. Next, 70 μL of a mixed aqueous solution of 0.2 mol/L 1-(3-dimethylaminopropyl)-3-ethylcarbodiimide (EDC) and 0.05 mol/L N-hydroxysuccinimide (NHS) was added to activate the sensor chip. Then, Recombinant Human FGFR1 alpha (IIIc) Fc Chimera Protein CF (R&D systems, 658-FR-050) prepared at 50 nmol/L in an Acetate 4.5 buffer (Cytiva, BR100350) was added thereto to perform immobilization at about 5000 RU. Thereafter, the blocking treatment was performed with an ethanolamine solution. In addition, in another flow channel of the same sensor chip, blocking treatment was performed immediately after activation without immobilizing FGFR.
A cyclic peptide diluted to 10 nmol/L using HBS-EP was added to each flow channel of the FGFR-immobilized sensor chip produced above at 25° C. for 10 minutes, then HBS-EP was allowed to flow as a running buffer for 30 minutes, and the binding of the cyclic peptide to FGFR was measured. Thereafter, a regeneration treatment of removing the bound cyclic peptide was performed by repeating the flow of a regeneration liquid in which sodium chloride powder was dissolved in Glysine 1.5 (Cytiva, BR100354) to a final concentration of 0.15 mol/L for 1 minute in each flow channel twice. The binding amount of the cyclic peptide was evaluated from the difference between the measured value of Biacore-T200 in the flow channel in which FGFR was immobilized and the measured value of Biacore-T200 in the flow channel in which FGFR was not immobilised, in a case where a 10 nmol/L cyclic peptide was allowed to flow.
The binding amount of the cyclic peptide evaluated above was normalized to the binding amount of the cyclic peptide molecules per one molecule of FGFR using the molecular weights of the cyclic peptide and FGFR, and the binding affinity to FGFR was evaluated according to the following evaluation criteria. The evaluation result preferably satisfies the evaluation criteria A, B, or C.
• A: The binding amount is 0.7 molecules of the cyclic peptide/one molecule of FGFR or more. • B: The binding amount is 0.5 molecules of the cyclic peptide/one molecule of FGFR or more and less than 0.7 molecules of cyclic peptide/one molecule of FGFR. • C: The binding amount is 0.1 molecules of cyclic peptide/one molecule of FGFR or more and less than 0.5 molecules of cyclic peptide/one molecule of FGFR. • D: The binding amount is less than 0.1 molecules of the cyclic peptide/one molecule of FGFR.

T1 sequence (P11362 with tags, fused parts or gaps limits assumed): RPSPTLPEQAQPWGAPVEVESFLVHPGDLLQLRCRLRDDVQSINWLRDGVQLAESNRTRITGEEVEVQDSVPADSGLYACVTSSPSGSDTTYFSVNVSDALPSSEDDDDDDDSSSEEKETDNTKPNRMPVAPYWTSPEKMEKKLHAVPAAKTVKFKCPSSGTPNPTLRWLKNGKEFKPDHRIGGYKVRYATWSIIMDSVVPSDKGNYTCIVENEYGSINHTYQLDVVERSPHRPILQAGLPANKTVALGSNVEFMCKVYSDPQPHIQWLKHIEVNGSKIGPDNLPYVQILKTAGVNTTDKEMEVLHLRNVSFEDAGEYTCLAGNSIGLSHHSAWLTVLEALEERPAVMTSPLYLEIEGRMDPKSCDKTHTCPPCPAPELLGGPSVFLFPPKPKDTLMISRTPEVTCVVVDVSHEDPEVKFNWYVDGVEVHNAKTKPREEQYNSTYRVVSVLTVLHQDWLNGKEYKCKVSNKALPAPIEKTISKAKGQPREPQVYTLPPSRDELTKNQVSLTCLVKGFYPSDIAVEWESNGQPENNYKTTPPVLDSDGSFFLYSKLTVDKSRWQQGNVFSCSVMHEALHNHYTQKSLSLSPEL

Row | Substance | Evaluation result of reductive stability [1] | Evaluation result of binding affinity to FGFR [2]
1 | 332 (AXVWTFDRHAQEISQALHXVKKK; not fully specified; Description of Artificial Sequence: Cyclic peptide) [compound 332] | A (The residual rate of cyclic peptide is 90% or more.) | A (The binding amount is 0.7 molecules of the cyclic peptide/one molecule of FGFR or more.)
2 | 333 (AXVWTFDRHAQEISQALHXVKKK; not fully specified; Description of Artificial Sequence: Cyclic peptide) [compound 333] | A (The residual rate of cyclic peptide is 90% or more.) | A (The binding amount is 0.7 molecules of the cyclic peptide/one molecule of FGFR or more.)
3 | 334 (AXVWTFDRHAQEISQALHXVKKK; Description of Artificial Sequence: Cyclic peptide) [compound 334] | A (The residual rate of cyclic peptide is 90% or more.) | A (The binding amount is 0.7 molecules of the cyclic peptide/one molecule of FGFR or more.)
4 | 336 (ACVWTFDRHAQEISQALHCVKKK; disulfide 2-19 (inferred)) [compound 336] | D (The residual rate of the cyclic peptide is less than 50%) | D (The binding amount is less than 0.1 molecules of the cyclic peptide/one molecule of FGFR.)
5 | 337 (F[Orn](COCH2)VYTFDAHAHSLDAALN[hCys]IKKK; thioether 2-19) [compound 337] | B (The residual rate of the cyclic peptide is 70% or more and less than 90%) | C (The binding amount is 0.1 molecules of cyclic peptide/one molecule of FGFR or more and less than 0.5 molecules of cyclic peptide/one molecule of FGFR.)
6 | 338 (FXVYTFDAHAHSLDAALNXIKKK; Description of Artificial Sequence: Cyclic peptide) [compound 338] | A (The residual rate of cyclic peptide is 90% or more.) | C (The binding amount is 0.1 molecules of cyclic peptide/one molecule of FGFR or more and less than 0.5 molecules of cyclic peptide/one molecule of FGFR.)
7 | 339 (F[Orn](COCH2)VYTFDAHAHS[NMeL]DAALN[hCys]IKKK; thioether 2-19) [compound 339] | B (The residual rate of the cyclic peptide is 70% or more and less than 90%) | C (The binding amount is 0.1 molecules of cyclic peptide/one molecule of FGFR or more and less than 0.5 molecules of cyclic peptide/one molecule of FGFR.)
8 | 340 (F[Orn](COCH2)VYTFDAHAHS[hLeu]DAALN[hCys]IKKK; thioether 2-19) [compound 340] | B (The residual rate of the cyclic peptide is 70% or more and less than 90%) | B (The binding amount is 0.5 molecules of the cyclic peptide/one molecule of FGFR or more and less than 0.7 molecules of cyclic peptide/one molecule of FGFR.)
9 | 341 ([Orn](COCH2)VYTFDAHAHSLDAALN[hCys]IKKK; thioether 1-18) [compound 341] | B (The residual rate of the cyclic peptide is 70% or more and less than 90%) | C (The binding amount is 0.1 molecules of cyclic peptide/one molecule of FGFR or more and less than 0.5 molecules of cyclic peptide/one molecule of FGFR.)
10 | 342 (F[Orn](COCH2)VYTFDAHAHSLDAALN[hCys]KKK; thioether 2-19) [compound 342] | B (The residual rate of the cyclic peptide is 70% or more and less than 90%) | C (The binding amount is 0.1 molecules of cyclic peptide/one molecule of FGFR or more and less than 0.5 molecules of cyclic peptide/one molecule of FGFR.)
